Assay results taken from patent US20020052473.

T1: full-length pro-IL-1H4
T1 chain: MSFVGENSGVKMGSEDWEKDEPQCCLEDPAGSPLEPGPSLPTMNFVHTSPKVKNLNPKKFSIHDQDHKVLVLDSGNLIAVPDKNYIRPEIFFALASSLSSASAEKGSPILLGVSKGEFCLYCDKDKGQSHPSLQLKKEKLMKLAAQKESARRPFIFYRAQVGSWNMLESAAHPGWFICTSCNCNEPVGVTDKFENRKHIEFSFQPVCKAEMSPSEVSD

B1: caspase 4 (protein)
chain: QISPNKKAHPNMEAGPPESGESTDALKLCPHEEFLRLCKERAEEIYPIKERNNRTRLALIICNTEFDHLPPRNGADFDITGMKELLEGLDYSVDVEENLTARDMESALRAFATRPEHKSSDSTFLVLMSHGILEGICGTVHDEKKPDVLLYDTIFQIFNNRNCLSLKDKPKVIIVQACRGANRGELWVRDSPASLEVASSQSSENLEEDAVYKTHVEKDFIAFCSSTPHNVSWRDSTMGSIFITQLITCFQKYSWCCHLEEVFRKVQQSFETPRAKAQMPTIERLSMTRYFYLFPGN
B2: caspase 1 (protein)
chain: NPAMPTSSGSEGNVKLCSLEEAQRIWKQKSAEIYPIMDKSSRTRLALIICNEEFDSIPRRTGAEVDITGMTMLLQNLGYSVDVKKNLTASDMTTELEAFAHRPEHKTSDSTFLVFMSHGIREGICGKKHSEQVPDILQLNAIFNMLNTKNCPSLKDKPKVIIIQACRGDSPGVVWFKDSVGVSGNLSLPTTEEFEDDAIKKAHIEKDFIAFCSSTPDNVSWRHPTMGSVFIGRLIEHMQEYACSCDVEEIFRKVRFSFEQPDGRAQMPTTERVTLTRCFYLFPGH

Target: T1, full-length pro-IL-1H4

Row | Protein | cleavage of pro-IL-1H4 | cleavage of pro-IL-1H4 to mature IL-1H4 (SDS polyacrylamide gel)
1 | B1 | caspase 4 also cleaved pro-IL-1H4, although not as efficiently as caspase 1 | 
2 | B2 |  | Caspase 1 at a ratio of 1:50 to 1:5 (caspase:IL-1H4, weight/weight) completely cleaved pro-IL-1H4 to release the mature IL-1H4
